Starred links: 1 amine or outer side, 2 acyl side, 3 side chain; linkers in the order of their positions; H or OH if unused. Non-standard residues stand in square brackets, D forms with d. Groups on a side chain read outwards from the residue. Primed or numbered codes have the meaning given here. No end group written: not given here. *: point of attachment. γGlu = O=C(O)[C@H](CCC(=O)[*:2])N[*:1]; Stearoyl = CCCCCCCCCCCCCCCCCC(=O)*; Palmitoyl = CCCCCCCCCCCCCCCC(=O)*; αMeF = C[C@](N)(Cc1ccccc1)C(=O)O; αMeK = C[C@](N)(CCCCN)C(=O)O; αMeS = C[C@](N)(CO)C(=O)O; PEG2′ = not defined here; Aib = CC(C)(N)C(=O)O
Key:
Assay in all cases: cell-based or functional assay
[1] = biological target: GLP-1 receptor (human, UniProt P43220 24-463)
[2] = biological target: T1, glucose-dependent insulinotropic peptide (gastric inhibitory polypeptide) receptor (human, UniProt P48546 22-466)
T1 sequence (looked up): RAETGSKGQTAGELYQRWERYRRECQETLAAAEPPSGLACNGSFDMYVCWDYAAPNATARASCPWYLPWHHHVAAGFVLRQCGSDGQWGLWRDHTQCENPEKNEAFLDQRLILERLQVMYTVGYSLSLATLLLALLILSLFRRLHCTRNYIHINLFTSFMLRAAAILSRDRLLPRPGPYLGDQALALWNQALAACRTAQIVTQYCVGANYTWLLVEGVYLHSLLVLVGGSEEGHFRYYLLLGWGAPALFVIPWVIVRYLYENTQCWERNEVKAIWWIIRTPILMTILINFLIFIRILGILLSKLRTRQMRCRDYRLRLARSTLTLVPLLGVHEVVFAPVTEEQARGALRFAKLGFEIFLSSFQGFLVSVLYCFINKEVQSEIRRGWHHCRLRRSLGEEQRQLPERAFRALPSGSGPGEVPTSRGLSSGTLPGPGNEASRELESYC

[3] = biological target: glucagon receptor (human, UniProt P47871 26-477)
Chain of glucagon receptor (P47871 26-477): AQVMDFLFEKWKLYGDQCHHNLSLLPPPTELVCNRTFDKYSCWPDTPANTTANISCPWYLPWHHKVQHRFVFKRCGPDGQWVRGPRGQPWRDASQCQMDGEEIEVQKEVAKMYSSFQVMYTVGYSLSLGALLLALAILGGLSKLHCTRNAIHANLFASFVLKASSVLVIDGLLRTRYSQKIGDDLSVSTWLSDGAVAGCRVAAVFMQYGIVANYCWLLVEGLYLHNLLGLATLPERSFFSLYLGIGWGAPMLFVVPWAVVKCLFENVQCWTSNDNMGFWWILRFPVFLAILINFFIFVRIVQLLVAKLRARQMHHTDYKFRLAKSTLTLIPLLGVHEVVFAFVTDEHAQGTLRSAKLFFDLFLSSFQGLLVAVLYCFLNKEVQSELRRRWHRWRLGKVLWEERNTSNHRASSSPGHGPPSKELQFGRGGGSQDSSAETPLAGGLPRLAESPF

B1: SEQ ID NO 35 (peptide)
peptide: H[Aib]EGS[αMeF]TDDV[αMeS]S[αMeF]LEGEAA[αMeK]E[αMeF]IA[αMeF]VV[αMeK]GGK([γGlu-Palmitoyl])-NH2
modifications: N-terminus assumed
SMILES: CCCCCCCCCCCCCCCC(=O)N[C@@H](CCC(=O)NCCCC[C@H](NC(=O)CNC(=O)CNC(=O)[C@](C)(CCCCN)NC(=O)[C@@H](NC(=O)[C@@H](NC(=O)[C@](C)(Cc1ccccc1)NC(=O)[C@H](C)NC(=O)[C@@H](NC(=O)[C@](C)(Cc1ccccc1)NC(=O)[C@H](CCC(=O)O)NC(=O)[C@](C)(CCCCN)NC(=O)[C@H](C)NC(=O)[C@H](C)NC(=O)[C@H](CCC(=O)O)NC(=O)CNC(=O)[C@H](CCC(=O)O)NC(=O)[C@H](CC(C)C)NC(=O)[C@](C)(Cc1ccccc1)NC(=O)[C@H](CO)NC(=O)[C@](C)(CO)NC(=O)[C@@H](NC(=O)[C@H](CC(=O)O)NC(=O)[C@H](CC(=O)O)NC(=O)[C@@H](NC(=O)[C@](C)(Cc1ccccc1)NC(=O)[C@H](CO)NC(=O)CNC(=O)[C@H](CCC(=O)O)NC(=O)C(C)(C)NC(=O)[C@@H](N)Cc1c[nH]cn1)[C@@H](C)O)C(C)C)[C@@H](C)CC)C(C)C)C(C)C)C(N)=O)C(=O)O
Primary assay EC50 (cAMP), Mean pM GLP-1R [1]: 3260 pM
Primary assay EC50 (cAMP), n1 [1]: 4.9 nM
Primary assay EC50 (cAMP), n2 [1]: 1.7 nM
Primary assay EC50 (cAMP), n1 [2]: 89 nM
Primary assay EC50 (cAMP), n2 [2]: 27 nM
Primary assay EC50 (cAMP), n1 [3]: 89 nM
Primary assay EC50 (cAMP), n2 [3]: 27 nM

H[Aib]EGS[αMeF]TSDV[αMeS]S[αMeF]LEGEAAK([PEG2′-PEG2′-γGlu-Stearoyl])E[αMeF]IA[αMeF]VV[αMeK]GG-NH2 [SEQ ID NO 33]
Primary assay EC50 (cAMP), Mean pM GLP-1R [1]: 100 pM
Primary assay EC50 (cAMP), n1 [1]: 0.064 nM
Primary assay EC50 (cAMP), n2 [1]: 0.14 nM
Primary assay EC50 (cAMP), n1 [2]: 25 nM
Primary assay EC50 (cAMP), n2 [2]: 25 nM
Primary assay EC50 (cAMP), n1 [3]: 25 nM
Primary assay EC50 (cAMP), n2 [3]: 25 nM

B2: SEQ ID NO 29 (peptide)
peptide: H[Aib]EGS[αMeF]TTDV[αMeS]S[αMeF]LEGEAA[αMeK]E[αMeF]IA[αMeF]VV[αMeK]GG-NH2
modifications: N-terminus assumed
SMILES: CC[C@H](C)[C@H](NC(=O)[C@](C)(Cc1ccccc1)NC(=O)[C@H](CCC(=O)O)NC(=O)[C@](C)(CCCCN)NC(=O)[C@H](C)NC(=O)[C@H](C)NC(=O)[C@H](CCC(=O)O)NC(=O)CNC(=O)[C@H](CCC(=O)O)NC(=O)[C@H](CC(C)C)NC(=O)[C@](C)(Cc1ccccc1)NC(=O)[C@H](CO)NC(=O)[C@](C)(CO)NC(=O)[C@@H](NC(=O)[C@H](CC(=O)O)NC(=O)[C@@H](NC(=O)[C@@H](NC(=O)[C@](C)(Cc1ccccc1)NC(=O)[C@H](CO)NC(=O)CNC(=O)[C@H](CCC(=O)O)NC(=O)C(C)(C)NC(=O)[C@@H](N)Cc1c[nH]cn1)[C@@H](C)O)[C@@H](C)O)C(C)C)C(=O)N[C@@H](C)C(=O)N[C@@](C)(Cc1ccccc1)C(=O)N[C@H](C(=O)N[C@H](C(=O)N[C@@](C)(CCCCN)C(=O)NCC(=O)NCC(N)=O)C(C)C)C(C)C
Primary assay EC50 (cAMP), Mean pM GLP-1R [1]: 801 pM
Primary assay EC50 (cAMP), n1 [1]: 0.78 nM
Primary assay EC50 (cAMP), n2 [1]: 0.82 nM
Primary assay EC50 (cAMP), n1 [2]: 100 nM
Primary assay EC50 (cAMP), n2 [2]: 100 nM
Primary assay EC50 (cAMP), n1 [3]: 100 nM
Primary assay EC50 (cAMP), n2 [3]: 100 nM

H[Aib]EGS[αMeF]TDDV[αMeS]S[αMeF]LEGEAAK([PEG2′-PEG2′-γGlu-Stearoyl])E[αMeF]IA[αMeF]VV[αMeK]GG-NH2 [SEQ ID NO 36]
Primary assay EC50 (cAMP), Mean pM GLP-1R [1]: 44200 pM
Primary assay EC50 (cAMP), n1 [1]: 63 nM
Primary assay EC50 (cAMP), n2 [1]: 25 nM
Primary assay EC50 (cAMP), n1 [2]: 84 nM
Primary assay EC50 (cAMP), n2 [2]: 25 nM
Primary assay EC50 (cAMP), n1 [3]: 84 nM
Primary assay EC50 (cAMP), n2 [3]: 25 nM

B3: SEQ ID NO 32 (peptide)
peptide: H[Aib]EGS[αMeF]TSDV[αMeS]S[αMeF]LEGEAA[αMeK]E[αMeF]IA[αMeF]VV[αMeK]GGK([γGlu-Palmitoyl])-NH2
modifications: N-terminus assumed
SMILES: CCCCCCCCCCCCCCCC(=O)N[C@@H](CCC(=O)NCCCC[C@H](NC(=O)CNC(=O)CNC(=O)[C@](C)(CCCCN)NC(=O)[C@@H](NC(=O)[C@@H](NC(=O)[C@](C)(Cc1ccccc1)NC(=O)[C@H](C)NC(=O)[C@@H](NC(=O)[C@](C)(Cc1ccccc1)NC(=O)[C@H](CCC(=O)O)NC(=O)[C@](C)(CCCCN)NC(=O)[C@H](C)NC(=O)[C@H](C)NC(=O)[C@H](CCC(=O)O)NC(=O)CNC(=O)[C@H](CCC(=O)O)NC(=O)[C@H](CC(C)C)NC(=O)[C@](C)(Cc1ccccc1)NC(=O)[C@H](CO)NC(=O)[C@](C)(CO)NC(=O)[C@@H](NC(=O)[C@H](CC(=O)O)NC(=O)[C@H](CO)NC(=O)[C@@H](NC(=O)[C@](C)(Cc1ccccc1)NC(=O)[C@H](CO)NC(=O)CNC(=O)[C@H](CCC(=O)O)NC(=O)C(C)(C)NC(=O)[C@@H](N)Cc1c[nH]cn1)[C@@H](C)O)C(C)C)[C@@H](C)CC)C(C)C)C(C)C)C(N)=O)C(=O)O
Primary assay EC50 (cAMP), Mean pM GLP-1R [1]: 27 pM
Primary assay EC50 (cAMP), n1 [1]: 0.036 nM
Primary assay EC50 (cAMP), n2 [1]: 0.018 nM
Primary assay EC50 (cAMP), n1 [2]: 90 nM
Primary assay EC50 (cAMP), n2 [2]: 90 nM
Primary assay EC50 (cAMP), n1 [3]: 90 nM
Primary assay EC50 (cAMP), n2 [3]: 90 nM

B4: SEQ ID NO 34 (peptide)
peptide: H[Aib]EGS[αMeF]TSDV[αMeS]S[αMeF]LEGEAAK([γGlu-Palmitoyl])E[αMeF]IA[αMeF]VV[αMeK]GG-NH2
modifications: N-terminus assumed
SMILES: CCCCCCCCCCCCCCCC(=O)N[C@@H](CCC(=O)NCCCC[C@H](NC(=O)[C@H](C)NC(=O)[C@H](C)NC(=O)[C@H](CCC(=O)O)NC(=O)CNC(=O)[C@H](CCC(=O)O)NC(=O)[C@H](CC(C)C)NC(=O)[C@](C)(Cc1ccccc1)NC(=O)[C@H](CO)NC(=O)[C@](C)(CO)NC(=O)[C@@H](NC(=O)[C@H](CC(=O)O)NC(=O)[C@H](CO)NC(=O)[C@@H](NC(=O)[C@](C)(Cc1ccccc1)NC(=O)[C@H](CO)NC(=O)CNC(=O)[C@H](CCC(=O)O)NC(=O)C(C)(C)NC(=O)[C@@H](N)Cc1c[nH]cn1)[C@@H](C)O)C(C)C)C(=O)N[C@@H](CCC(=O)O)C(=O)N[C@@](C)(Cc1ccccc1)C(=O)N[C@H](C(=O)N[C@@H](C)C(=O)N[C@@](C)(Cc1ccccc1)C(=O)N[C@H](C(=O)N[C@H](C(=O)N[C@@](C)(CCCCN)C(=O)NCC(=O)NCC(N)=O)C(C)C)C(C)C)[C@@H](C)CC)C(=O)O
Primary assay EC50 (cAMP), Mean pM GLP-1R [1]: 43 pM
Primary assay EC50 (cAMP), n1 [1]: 0.039 nM
Primary assay EC50 (cAMP), n2 [1]: 0.048 nM
Primary assay EC50 (cAMP), n1 [2]: 93 nM
Primary assay EC50 (cAMP), n2 [2]: 93 nM
Primary assay EC50 (cAMP), n1 [3]: 93 nM
Primary assay EC50 (cAMP), n2 [3]: 93 nM

HXEGTFTSDVSSYLEGQAAKEFIAWLVKGRK (Aib 2; K(ε-(PEG)2-(PEG)2-γE-Stearate) after R30; C-terminal amide) [SEQ ID NO 6]
Primary assay EC50 (cAMP), Mean pM GLP-1R [1]: 5.1 pM
Primary assay EC50 (cAMP), n1 [1]: 0.0048 nM
Primary assay EC50 (cAMP), n2 [1]: 0.0053 nM
Primary assay EC50 (cAMP), n1 [2]: 22 nM
Primary assay EC50 (cAMP), n2 [2]: 22 nM
Primary assay EC50 (cAMP), n1 [3]: 22 nM
Primary assay EC50 (cAMP), n2 [3]: 22 nM

B5: SEQ ID NO 30 (peptide)
peptide: H[Aib]EGS[αMeF]TVDV[αMeS]S[αMeF]LEGEAA[αMeK]E[αMeF]IA[αMeF]VV[αMeK]GG-NH2
modifications: N-terminus assumed
SMILES: CC[C@H](C)[C@H](NC(=O)[C@](C)(Cc1ccccc1)NC(=O)[C@H](CCC(=O)O)NC(=O)[C@](C)(CCCCN)NC(=O)[C@H](C)NC(=O)[C@H](C)NC(=O)[C@H](CCC(=O)O)NC(=O)CNC(=O)[C@H](CCC(=O)O)NC(=O)[C@H](CC(C)C)NC(=O)[C@](C)(Cc1ccccc1)NC(=O)[C@H](CO)NC(=O)[C@](C)(CO)NC(=O)[C@@H](NC(=O)[C@H](CC(=O)O)NC(=O)[C@@H](NC(=O)[C@@H](NC(=O)[C@](C)(Cc1ccccc1)NC(=O)[C@H](CO)NC(=O)CNC(=O)[C@H](CCC(=O)O)NC(=O)C(C)(C)NC(=O)[C@@H](N)Cc1c[nH]cn1)[C@@H](C)O)C(C)C)C(C)C)C(=O)N[C@@H](C)C(=O)N[C@@](C)(Cc1ccccc1)C(=O)N[C@H](C(=O)N[C@H](C(=O)N[C@@](C)(CCCCN)C(=O)NCC(=O)NCC(N)=O)C(C)C)C(C)C
Primary assay EC50 (cAMP), Mean pM GLP-1R [1]: 88600 pM
Primary assay EC50 (cAMP), n1 [1]: 80 nM
Primary assay EC50 (cAMP), n2 [1]: 97 nM
Primary assay EC50 (cAMP), n1 [2]: 100 nM
Primary assay EC50 (cAMP), n2 [2]: 100 nM
Primary assay EC50 (cAMP), n1 [3]: 100 nM
Primary assay EC50 (cAMP), n2 [3]: 100 nM
